This note sets out measurements from patent US20220242962A1 (APTEVO RESEARCH AND DEVELOPMENT, published 2022).

A word on the EC50: it is the concentration at which the effect is half-maximal. Read a low EC50 as an effect from little substance. A word on the EC50 (read off the curve): it is the concentration giving half of the maximal effect. A high value points to a less potent agent. Broadly, the Kd is the concentration at which binding is half-saturated. By koff is commonly meant a measure of how fast the partners let go of each other. A higher koff goes with fast dissociation. The term kon denotes a measure of how fast the partners come together.

Test [1] has as its target T1, Full-length Human OX40 (human, UniProt P43489 29-277).
T1 sequence: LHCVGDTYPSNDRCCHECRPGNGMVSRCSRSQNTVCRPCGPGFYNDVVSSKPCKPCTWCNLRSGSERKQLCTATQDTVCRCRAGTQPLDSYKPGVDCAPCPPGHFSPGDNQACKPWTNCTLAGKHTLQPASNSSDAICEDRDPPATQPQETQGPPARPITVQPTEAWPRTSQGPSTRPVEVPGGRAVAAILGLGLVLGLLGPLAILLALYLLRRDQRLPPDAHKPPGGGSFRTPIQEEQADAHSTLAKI
Briefly: cell-based or functional assay.

For test [2], the target named is T2, Full-length Human 4-1BB (human, UniProt Q07011 24-255). The experiment in a line: cell-based or functional assay.
Target sequence in this assay (Q07011 24-255): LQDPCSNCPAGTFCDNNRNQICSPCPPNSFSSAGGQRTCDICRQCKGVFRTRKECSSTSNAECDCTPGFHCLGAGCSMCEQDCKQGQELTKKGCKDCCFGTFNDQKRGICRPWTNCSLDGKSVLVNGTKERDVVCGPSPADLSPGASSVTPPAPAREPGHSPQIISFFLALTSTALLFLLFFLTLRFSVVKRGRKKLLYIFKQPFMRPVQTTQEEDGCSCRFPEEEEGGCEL
Test [3] concerns the target T2, Full-length Human 4-1BB. Briefly: flow cytometry, Jurkat cells expressing human 4-1BB. Here is the method: (§1) FIGS. 12A-12D show the binding of anti-4-1BB x anti-OX40 constructs, with additional humanization in 4-1BB and altered orientations of binding domains, human (12A) or cynomolgus (12C) 4-1BB-expressing Jurkat cells or human (12B) or cynomolgus (12D) OX40-expressing CHOK1SV cells. Serial dilutions of ADAPTIR™ constructs were incubated with transfected cells and subsequently labelled with a fluorescently-conjugated goat-a-human Fc secondary antibody. […] (See Example 19.)
(§2) Binding studies were performed using the flow cytometry-based staining procedures described above.

For another test, the target named is T3, Full-length Cyno 4-1BB (cynomolgus monkey, UniProt Q07011 24-255 (human entry)).
T3 construct: on Jurkat or CHO cells; also called FOB006; cynomolgus 4-1BB
T3 chain: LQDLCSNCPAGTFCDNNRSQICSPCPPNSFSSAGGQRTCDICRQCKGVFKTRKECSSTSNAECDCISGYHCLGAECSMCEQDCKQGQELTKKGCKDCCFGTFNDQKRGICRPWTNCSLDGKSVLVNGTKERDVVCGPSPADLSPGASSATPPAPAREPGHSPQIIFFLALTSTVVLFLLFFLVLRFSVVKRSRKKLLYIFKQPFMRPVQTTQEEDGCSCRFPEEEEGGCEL
Briefly: flow cytometry on Jurkat cells transfected with cynomolgus 4-1BB, goat anti-human Fc secondary antibody, MFI (Mean). Here is the method: as §1, §2
On the technique in general: A flow cytometer gives signals particle by particle.

The target in another test is T4, Human 4-1BB ECD-AFH (human).
T4 construct: entry includes the tags; also called FOB003; HUMAN CD137 ECD-AVI-FLAG-HIS
Briefly: SPR, construct captured, monomeric ECD as analyte. As to the method:
(§3) Mouse anti-human IgG (GE, BR-1008-39) at 25 μg/ml in 10 mM sodium acetate pH 5.0 was immobilized at a density of ˜10,000 response units (RU) onto each flow cell of a CM5 research-grade sensor chip (GE) by standard amine coupling chemistry. Each binding protein at approximately 100 nM in HBS-EP+ with 0.2% BSA buffer was captured in a flow cell with the immobilized anti-human IgG at a flow rate of 10 μL/min for 20 seconds, leaving one flow cell surface unmodified as the reference. Using a single-cycle kinetics mode, five different concentrations of ECD were sequentially injected through each flow cell at 30 μL/min for 300 seconds followed by a 600 second dissociation period. Regeneration was achieved by injection of 3 M MgCl₂ at a flow rate of 30 μL/min for 30 seconds followed by HBS-EP+ with 0.2% BSA buffer stabilization for 1 min.
(§4) Sensorgrams obtained from kinetic SPR measurements were analyzed by the double subtraction method. The signal from the reference flow cell was subtracted from the analyte binding response obtained from flow cells with immobilized or captured ligands. Buffer reference responses were then averaged from multiple injections. The averaged buffer reference responses were then subtracted from analyte binding responses, and the final double-referenced data were analyzed with Biacore T200 Evaluation software (2.0, GE), globally fitting data to derive kinetic parameters. All sensorgrams were fitted using a simple one-to-one binding model.
(§5) Protein was produced by transient expression, purified by ProA chromatography and prep SEC.
On the technique in general: SPR reads the build-up and loss of mass on a sensor chip optically.

The next test addresses T5, Human OX40 ECD-AFH (human).
T5 construct: ECD'; entry includes the C-terminal tags; also called OXF003; Human OX40 ECD-avi-flag-his
T5 chain: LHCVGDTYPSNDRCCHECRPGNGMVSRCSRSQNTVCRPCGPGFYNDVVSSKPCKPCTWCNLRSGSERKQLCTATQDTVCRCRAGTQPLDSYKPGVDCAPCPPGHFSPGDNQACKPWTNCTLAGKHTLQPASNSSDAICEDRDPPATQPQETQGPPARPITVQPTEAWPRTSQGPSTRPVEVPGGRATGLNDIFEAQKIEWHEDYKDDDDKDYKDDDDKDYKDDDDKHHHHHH
Briefly: SPR, construct captured, monomeric ECD as analyte. Here is the method: as §3, §4, §5

The target in test [4] is T1, Full-length Human OX40. Briefly: flow cytometry, CHO cells expressing human OX40. As to the method:
as §1, §2

T4 sequence (chain, as listed by the source limits assumed): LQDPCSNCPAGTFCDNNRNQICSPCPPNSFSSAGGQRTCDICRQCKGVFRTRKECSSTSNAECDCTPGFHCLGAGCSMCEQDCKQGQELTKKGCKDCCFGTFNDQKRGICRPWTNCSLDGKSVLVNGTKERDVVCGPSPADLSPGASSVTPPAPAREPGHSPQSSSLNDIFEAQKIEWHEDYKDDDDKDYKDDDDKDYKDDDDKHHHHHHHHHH

B1: FXX01066 (bispecific antibody)
chain: EVQLVQSGAEVKKPGASVKVSCKASGYTFTSYWMNWVRQAPGQGLEWMGNIYPSGGSTNYAQKFQGRVTMTVDTSTSTVYMELSSLRSEDTAVYYCASFSDGYYAYAMDYWGQGTLVTVSSGGGGSGGGGSGGGGSGGGGSEIVMTQSPATLSLSPGERATLSCRASQSVSSYLNWYQQKPGQAPRLLIYYASRRHTGIPARFSGSGSGTDFTLTISSLQPEDFAVYYCQQGYNLPYTFGQGTKVEIKEPKSSDKTHTCPPCPAPPAAAPSVFLFPPKPKDTLMISRTPEVTCVVVDVSHEDPEVKFNWYVDGVEVHNAKTKPREEQYNSTYRVVSVLTVLHQDWLNGKEYKCAVSNKALPAPIEKTISKAKGQPREPQVYTLPPSRDELTKNQVSLTCLVKGFYPSDIAVEWESNGQPENNYKTTPPVLDSDGSFFLYSKLTVDKSRWQQGNVFSCSVMHEALHNHYTQKSLSLSPGGGGSPSSYVLTQPPSVSVAPGQTARITCGGNNIGSKSVNWFQQKPGQAPVLVVYDDSGRPSGIPERFSGSTSGNTATLTISRVEAGDEADYYCQVWDSSSDHVVFGGGTKLTVLGGGGSGGGGSGGGGSGGGGSQVQLVESGGGVVQPGRSLRLSCAASGFTLSYYGMHWVRQAPGKGLEWVAAISHDGSDKYYADSVKGRFTISRDNSKNTLYLQMNSLRAEDTAVYYCSNDQFDPWGQGTLVTVSSR
notes: ADAPTIR scFv-Fc-scFv, anti-4-1BB (VH-VL) N-terminal, anti-OX40 C-terminal, PAA (del) Fc; also called FX01066
Consider B1, for which, in the test with Full-length Human OX40 [1], the “OX40 Reporter Assay EC50” value was 12 pM and the “OX40 Reporter Assay Max induction” value came to 1.99e+06. For the same molecule, in the test with Full-length Human 4-1BB [2], the “4-1BB Reporter Assay EC50” value stood at 18 pM and the “4-1BB Reporter Assay Max induction” value is 5.5e+06. In the test with Full-length Human 4-1BB [3], a half-maximal response (EC50) required 230 pM and the “max MFI” value was 4710 MFI. Further, the “EC50 (read off the curve)” value with Full-length Cyno 4-1BB was ~300 pM. In the test with Human 4-1BB ECD-AFH, this molecule yielded a Kd of 15000 pM, a koff of 0.0045 s⁻¹ and a kon of 290000 M⁻¹ s⁻¹. Further, in the test with Human OX40 ECD-AFH, the Kd was found to be 500 pM, the off-rate (koff) was found to be 0.00031 s⁻¹ and the kon worked out at 680000 M⁻¹ s⁻¹. Further, in the test with Full-length Human OX40 [4], the EC50 came to 290 pM and the “max MFI” value was found to be 10400 MFI.

B2: FXX01102 (bispecific antibody)
chain: EVQLVQSGAEVKKPGASVKVSCKASGYTFTSYWMNWVRQAPGQGLEWMGNIYPSGGSTNYAQKFQGRVTMTVDTSTSTVYMELSSLRSEDTAVYYCASFSDGYYAYAMDYWGQGTLVTVSSGGGGSGGGGSGGGGSGGGGSEIVMTQSPATLSLSPGERATLSCRASQSVSSYLNWYQQKPGQAPRLLIYYASRRHTGIPARFSGSGSGTDFTLTISSLQPEDFAVYYCQQGYNLPYTFGQGTKVEIKEPKSSDKTHTCPPCPAPPAAAPSVFLFPPKPKDTLMISRTPEVTCVVVDVSHEDPEVKFNWYVDGVEVHNAKTKPREEQYNSTYRVVSVLTVLHQDWLNGKEYKCAVSNKALPAPIEKTISKAKGQPREPQVYTLPPSRDELTKNQVSLTCLVKGFYPSDIAVEWESNGQPENNYKTTPPVLDSDGSFFLYSKLTVDKSRWQQGNVFSCSVMHEALHNHYTQKSLSLSPGGGGSPSSYVLTQPPSVSVAPGKTARITCGGNNIGSKSVNWFQQKPGQAPVLVVYDDSGRPSGIPERFSGSTSGNTATLTISRVEAGDEADYYCQVWDSSSDHVVFGGGTKLTVLGGGGSGGGGSGGGGSGGGGSQVQLVESGGGVVQPGRSLRLSCAASGFTLSYYGMHWVRQAPGKGLEWVAAISHDGSDKYYADSVKGRFTISRDNSKNRLYLQMNSLRAEDTAVYYCSNDQFDPWGQGTLVTVSSR
notes: ADAPTIR anti-4-1BB (HL) x anti-OX40 with Q17K and T86R; PAA (del) Fc; also called FX01102
B2: in the test with Full-length Human OX40 [1], the “OX40 Reporter Assay EC50” value is 10 pM and the “OX40 Reporter Assay Max induction” value worked out at 2.05e+06. For the same molecule, in the test with Full-length Human 4-1BB [2], the “4-1BB Reporter Assay EC50” value was 14 pM and the “4-1BB Reporter Assay Max induction” value came to 6.94e+06. In the test with Full-length Human 4-1BB [3], a half-maximal effect (EC50) was put at 180 pM and the “max MFI” value worked out at 4850 MFI. For the same molecule, in the test with Full-length Cyno 4-1BB, the “EC50 (read off the curve)” value is ~300 pM. Also, in the test with Human 4-1BB ECD-AFH, the equilibrium dissociation constant (Kd) was 15000 pM, the koff came out at 0.0043 s⁻¹ and the kon was found to be 290000 M⁻¹ s⁻¹. In the test with Human OX40 ECD-AFH, this molecule registered an equilibrium dissociation constant (Kd) of 400 pM, a koff of 0.0003 s⁻¹ and a kon of 710000 M⁻¹ s⁻¹. Also, in the test with Full-length Human OX40 [4], the EC50 amounted to 340 pM and the “max MFI” value came to 10500 MFI.

B3: FXX01101 (bispecific antibody)
chain: EVQLVQSGAEVKKPGASVKVSCKASGYTFTSYWMNWVRQAPGQGLEWMGNIYPSGGSTNYAQKFQGRVTMTVDTSTSTVYMELSSLRSEDTAVYYCASFSDGYYAYAMDYWGQGTLVTVSSGGGGSGGGGSGGGGSGGGGSEIVMTQSPATLSLSPGERATLSCRASQSVSSYLNWYQQKPGQAPRLLIYYASRRHTGIPARFSGSGSGTDFTLTISSLQPEDFAVYYCQQGYNLPYTFGQGTKVEIKEPKSSDKTHTCPPCPAPPAAAPSVFLFPPKPKDTLMISRTPEVTCVVVDVSHEDPEVKFNWYVDGVEVHNAKTKPREEQYNSTYRVVSVLTVLHQDWLNGKEYKCAVSNKALPAPIEKTISKAKGQPREPQVYTLPPSRDELTKNQVSLTCLVKGFYPSDIAVEWESNGQPENNYKTTPPVLDSDGSFFLYSKLTVDKSRWQQGNVFSCSVMHEALHNHYTQKSLSLSPGGGGSPSSYVLTQPPSVSVAPGQTARITCGGNNIGSKSVNWFQQKPGQAPVLVVYDDSGRPSGIPERFSGSTSGNTATLTISRVEAGDEADYYCQVWDSSSDHVVFGGGTKLTVLGGGGSGGGGSGGGGSGGGGSQVQLVESGGGVVQPGRSLRLSCAASGFTLSYYGMHWVRQAPGKGLEWVAAISHDGSDKYYADSVKGRFTISRDNSKNRLYLQMNSLRAEDTAVYYCSNDQFDPWGQGTLVTVSSR
notes: ADAPTIR anti-4-1BB (HL) x anti-OX40 with T86R; PAA (del) Fc; also called FX01101
B3: in the test with Full-length Human OX40 [1], the “OX40 Reporter Assay EC50” value came to 11 pM and the “OX40 Reporter Assay Max induction” value was found to be 2.03e+06. Also, in the test with Full-length Human 4-1BB [2], the “4-1BB Reporter Assay EC50” value came to 19 pM and the “4-1BB Reporter Assay Max induction” value was determined as 6.96e+06. For the same molecule, in the test with Full-length Human 4-1BB [3], it took 250 pM to reach a half-maximal effect (EC50) and the “max MFI” value came out at 4850 MFI. Also, the “EC50 (read off the curve)” value with Full-length Cyno 4-1BB is ~300 pM. For the same molecule, in the test with Human 4-1BB ECD-AFH, binding was characterised by a dissociation constant (Kd) of 16000 pM, the koff was 0.0046 s⁻¹ and the association rate constant (kon) came to 290000 M⁻¹ s⁻¹. In the test with Human OX40 ECD-AFH, this molecule showed a Kd of 600 pM, a koff of 0.00041 s⁻¹ and a kon of 630000 M⁻¹ s⁻¹. Further, in the test with Full-length Human OX40 [4], the EC50 came to 310 pM and the “max MFI” value is 10500 MFI.
